Ends that are not written are not given here. * marks the point of attachment. C16 diacid = O=C(O)CCCCCCCCCCCCCCC(=O)*
T1: human GIP receptor (human, UniProt P48546 22-466)
T1 construct: whole, on cells; Transiently transfected COS-7 cells expressing the human GIP receptor; also called hGIPR
T1 sequence (looked up): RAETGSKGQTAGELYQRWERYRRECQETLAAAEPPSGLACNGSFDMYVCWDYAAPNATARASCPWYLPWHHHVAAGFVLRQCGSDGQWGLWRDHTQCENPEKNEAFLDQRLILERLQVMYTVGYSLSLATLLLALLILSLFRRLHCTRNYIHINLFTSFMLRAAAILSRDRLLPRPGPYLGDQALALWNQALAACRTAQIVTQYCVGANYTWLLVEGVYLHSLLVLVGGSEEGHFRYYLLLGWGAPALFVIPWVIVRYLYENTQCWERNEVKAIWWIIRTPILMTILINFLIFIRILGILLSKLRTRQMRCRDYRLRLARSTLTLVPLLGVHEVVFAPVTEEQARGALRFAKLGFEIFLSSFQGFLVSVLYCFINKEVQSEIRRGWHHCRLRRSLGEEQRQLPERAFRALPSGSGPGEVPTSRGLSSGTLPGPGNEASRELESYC

B1: AT178 [hGIP(5-30)NH2[I17K]-C16diacid/17] (peptide)
peptide: TFISDYSIAMDKK(C16 diacid)HQQDFVNWLLAQK-NH2
modifications: N-terminus assumed
SMILES: CC[C@H](C)[C@H](NC(=O)[C@H](CO)NC(=O)[C@H](Cc1ccc(O)cc1)NC(=O)[C@H](CC(=O)O)NC(=O)[C@H](CO)NC(=O)[C@@H](NC(=O)[C@H](Cc1ccccc1)NC(=O)[C@@H](N)[C@@H](C)O)[C@@H](C)CC)C(=O)N[C@@H](C)C(=O)N[C@@H](CCSC)C(=O)N[C@@H](CC(=O)O)C(=O)N[C@@H](CCCCN)C(=O)N[C@@H](CCCCNC(=O)CCCCCCCCCCCCCCC(=O)O)C(=O)N[C@@H](Cc1c[nH]cn1)C(=O)N[C@@H](CCC(N)=O)C(=O)N[C@@H](CCC(N)=O)C(=O)N[C@@H](CC(=O)O)C(=O)N[C@@H](Cc1ccccc1)C(=O)N[C@H](C(=O)N[C@@H](CC(N)=O)C(=O)N[C@@H](Cc1c[nH]c2ccccc12)C(=O)N[C@@H](CC(C)C)C(=O)N[C@@H](CC(C)C)C(=O)N[C@@H](C)C(=O)N[C@@H](CCC(N)=O)C(=O)N[C@@H](CCCCN)C(N)=O)C(C)C
B2: AT182 [hGIP(5-30)NH2[F22K]-C16diacid/22] (peptide)
peptide: TFISDYSIAMDKIHQQDK(C16 diacid)VNWLLAQK-NH2
modifications: N-terminus assumed
SMILES: CC[C@H](C)[C@H](NC(=O)[C@H](CO)NC(=O)[C@H](Cc1ccc(O)cc1)NC(=O)[C@H](CC(=O)O)NC(=O)[C@H](CO)NC(=O)[C@@H](NC(=O)[C@H](Cc1ccccc1)NC(=O)[C@@H](N)[C@@H](C)O)[C@@H](C)CC)C(=O)N[C@@H](C)C(=O)N[C@@H](CCSC)C(=O)N[C@@H](CC(=O)O)C(=O)N[C@@H](CCCCN)C(=O)N[C@H](C(=O)N[C@@H](Cc1c[nH]cn1)C(=O)N[C@@H](CCC(N)=O)C(=O)N[C@@H](CCC(N)=O)C(=O)N[C@@H](CC(=O)O)C(=O)N[C@@H](CCCCNC(=O)CCCCCCCCCCCCCCC(=O)O)C(=O)N[C@H](C(=O)N[C@@H](CC(N)=O)C(=O)N[C@@H](Cc1c[nH]c2ccccc12)C(=O)N[C@@H](CC(C)C)C(=O)N[C@@H](CC(C)C)C(=O)N[C@@H](C)C(=O)N[C@@H](CCC(N)=O)C(=O)N[C@@H](CCCCN)C(N)=O)C(C)C)[C@@H](C)CC
B3: AT181 [hGIP(5-30)NH2[D21K]-C16diacid/21] (peptide)
peptide: TFISDYSIAMDKIHQQK(C16 diacid)FVNWLLAQK-NH2
modifications: N-terminus assumed
SMILES: CC[C@H](C)[C@H](NC(=O)[C@H](CO)NC(=O)[C@H](Cc1ccc(O)cc1)NC(=O)[C@H](CC(=O)O)NC(=O)[C@H](CO)NC(=O)[C@@H](NC(=O)[C@H](Cc1ccccc1)NC(=O)[C@@H](N)[C@@H](C)O)[C@@H](C)CC)C(=O)N[C@@H](C)C(=O)N[C@@H](CCSC)C(=O)N[C@@H](CC(=O)O)C(=O)N[C@@H](CCCCN)C(=O)N[C@H](C(=O)N[C@@H](Cc1c[nH]cn1)C(=O)N[C@@H](CCC(N)=O)C(=O)N[C@@H](CCC(N)=O)C(=O)N[C@@H](CCCCNC(=O)CCCCCCCCCCCCCCC(=O)O)C(=O)N[C@@H](Cc1ccccc1)C(=O)N[C@H](C(=O)N[C@@H](CC(N)=O)C(=O)N[C@@H](Cc1c[nH]c2ccccc12)C(=O)N[C@@H](CC(C)C)C(=O)N[C@@H](CC(C)C)C(=O)N[C@@H](C)C(=O)N[C@@H](CCC(N)=O)C(=O)N[C@@H](CCCCN)C(N)=O)C(C)C)[C@@H](C)CC
B4: AT179 [hGIP(5-30)NH2[Q19K]-C16diacid/19] (peptide)
peptide: TFISDYSIAMDKIHK(C16 diacid)QDFVNWLLAQK-NH2
modifications: N-terminus assumed
SMILES: CC[C@H](C)[C@H](NC(=O)[C@H](CO)NC(=O)[C@H](Cc1ccc(O)cc1)NC(=O)[C@H](CC(=O)O)NC(=O)[C@H](CO)NC(=O)[C@@H](NC(=O)[C@H](Cc1ccccc1)NC(=O)[C@@H](N)[C@@H](C)O)[C@@H](C)CC)C(=O)N[C@@H](C)C(=O)N[C@@H](CCSC)C(=O)N[C@@H](CC(=O)O)C(=O)N[C@@H](CCCCN)C(=O)N[C@H](C(=O)N[C@@H](Cc1c[nH]cn1)C(=O)N[C@@H](CCCCNC(=O)CCCCCCCCCCCCCCC(=O)O)C(=O)N[C@@H](CCC(N)=O)C(=O)N[C@@H](CC(=O)O)C(=O)N[C@@H](Cc1ccccc1)C(=O)N[C@H](C(=O)N[C@@H](CC(N)=O)C(=O)N[C@@H](Cc1c[nH]c2ccccc12)C(=O)N[C@@H](CC(C)C)C(=O)N[C@@H](CC(C)C)C(=O)N[C@@H](C)C(=O)N[C@@H](CCC(N)=O)C(=O)N[C@@H](CCCCN)C(N)=O)C(C)C)[C@@H](C)CC
B5: AT180 [hGIP(5-30)NH2[Q20K]-C16diacid/20] (peptide)
peptide: TFISDYSIAMDKIHQK(C16 diacid)DFVNWLLAQK-NH2
modifications: N-terminus assumed
SMILES: CC[C@H](C)[C@H](NC(=O)[C@H](CO)NC(=O)[C@H](Cc1ccc(O)cc1)NC(=O)[C@H](CC(=O)O)NC(=O)[C@H](CO)NC(=O)[C@@H](NC(=O)[C@H](Cc1ccccc1)NC(=O)[C@@H](N)[C@@H](C)O)[C@@H](C)CC)C(=O)N[C@@H](C)C(=O)N[C@@H](CCSC)C(=O)N[C@@H](CC(=O)O)C(=O)N[C@@H](CCCCN)C(=O)N[C@H](C(=O)N[C@@H](Cc1c[nH]cn1)C(=O)N[C@@H](CCC(N)=O)C(=O)N[C@@H](CCCCNC(=O)CCCCCCCCCCCCCCC(=O)O)C(=O)N[C@@H](CC(=O)O)C(=O)N[C@@H](Cc1ccccc1)C(=O)N[C@H](C(=O)N[C@@H](CC(N)=O)C(=O)N[C@@H](Cc1c[nH]c2ccccc12)C(=O)N[C@@H](CC(C)C)C(=O)N[C@@H](CC(C)C)C(=O)N[C@@H](C)C(=O)N[C@@H](CCC(N)=O)C(=O)N[C@@H](CCCCN)C(N)=O)C(C)C)[C@@H](C)CC
B6: AT183 [hGIP(5-30)NH2[V23K]-C16diacid/23] (peptide)
peptide: TFISDYSIAMDKIHQQDFK(C16 diacid)NWLLAQK-NH2
modifications: N-terminus assumed
SMILES: CC[C@H](C)[C@H](NC(=O)[C@H](CO)NC(=O)[C@H](Cc1ccc(O)cc1)NC(=O)[C@H](CC(=O)O)NC(=O)[C@H](CO)NC(=O)[C@@H](NC(=O)[C@H](Cc1ccccc1)NC(=O)[C@@H](N)[C@@H](C)O)[C@@H](C)CC)C(=O)N[C@@H](C)C(=O)N[C@@H](CCSC)C(=O)N[C@@H](CC(=O)O)C(=O)N[C@@H](CCCCN)C(=O)N[C@H](C(=O)N[C@@H](Cc1c[nH]cn1)C(=O)N[C@@H](CCC(N)=O)C(=O)N[C@@H](CCC(N)=O)C(=O)N[C@@H](CC(=O)O)C(=O)N[C@@H](Cc1ccccc1)C(=O)N[C@@H](CCCCNC(=O)CCCCCCCCCCCCCCC(=O)O)C(=O)N[C@@H](CC(N)=O)C(=O)N[C@@H](Cc1c[nH]c2ccccc12)C(=O)N[C@@H](CC(C)C)C(=O)N[C@@H](CC(C)C)C(=O)N[C@@H](C)C(=O)N[C@@H](CCC(N)=O)C(=O)N[C@@H](CCCCN)C(N)=O)[C@@H](C)CC

Key:
human GIP receptor [1] = molecular target: T1, human GIP receptor; assay: ratio of Ki with 2% HSA to Ki without HSA, 125I-hGIP competition binding on hGIPR COS-7 cells;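 note: nonspecific binding was defined as radioligand signal on cells lacking the receptor transfection, with cell lysates measured after washes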
Description: (§1) After incubation, the cells were washed twice in ice-cold binding buffer (+/−2% HSA) and lysed using 200 mM NaOH with 1% SDS for 30 min. Nonspecific binding was determined as the binding of radioactive ligand to untransfected cells.

human GIP receptor [2] = molecular target: T1, human GIP receptor; assay: 125I-hGIP(1-42) competition binding, COS-7 cells expressing human GIPR, with 2% HSA;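 note: nonspecific signal taken as radioligand bound to untransfected cells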
Description: as §1

human GIP receptor [3] = molecular target: T1, human GIP receptor; assay: 125I-hGIP(1-42) competition binding, COS-7 cells expressing human GIPR, without HSA;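 note: nonspecific binding defined as radioligand bound to cells lacking the transfected receptor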
Description: as §1

human GIP receptor [4] = molecular target: T1, human GIP receptor; assay: cell-based or functional assay

Binder	Fold (Ki + HSA / Ki - HSA) (human GIP receptor [1]) [fold]	Ki (human GIP receptor [2]) [nM]	Ki (human GIP receptor [3]) [nM]	cAMP accumulation Fold (fold change from GIP(5-30)NH2) (human GIP receptor [4]) [fold]	cAMP accumulation IC50 (human GIP receptor [4]) [nM]	cAMP accumulation logIC50 (human GIP receptor [4])
B1	4.5	243	54.3	1	27.5	-7.56 log(M)
B2	1.4	1190	841	21.9	603	-6.22 log(M)
B3	3.6	120	33.3	0.5	12.6	-7.9 log(M)
B4	6.3	2380	378	2.1	57.5	-7.24 log(M)
B5	6.4	533	82.8	1.7	46.8	-7.33 log(M)
B6	4.4	23300	5350	55	1510	-5.82 log(M)

Source: patent publication US20200087373A1 (UNIVERSITY OF COPENHAGEN, published 2020)
